The nature of experiment [1]: GOD activity measurement (4-AA/TOOS/POD, absorbance at 555 nm). Format: biochemical. The following applies: 131 mM D-glucose, 37° C. The protocol:
The GDH activity was measured according to the method of Example 1, and GOD activity was measured by the following method using 4-aminoantipyrine (4-AA) and N-ethyl-N-(2-hydroxy-3-sulfopropyl)-3-methylaniline (TOOS). After mixing 30.0 mL of 100 mM phosphate buffer (pH 7.0), 6.0 mL of an 833 mM D-glucose solution, 0.3 mL of a 25 mM 4-AA solution, 0.3 mL of a 40 mM TOOS solution and 0.3 mL of a 500 U/mL, POD solution, 3.0 mL of the mixture was transferred to a test tube and warmed at 37° C. for 5 minutes, after which 0.1 mL of enzyme sample solution was added and reaction was initiated. The increase in absorbance at 555 nm per minute (ΔA555) was measured as the enzyme reaction proceeded, and the GOD activity was calculated by the formula shown below. […]
The value of 3.1 in the formula is the liquid volume (mL) of reaction reagents+enzyme reagent, 32.8 is the millimolar molecular absorption coefficient (cm^2/μmol) under the activity measuring conditions, 0.5 is the number of molecules of quinoneimine dye produced when 1 molecule of H2O2 is reduced, 0.1 is the liquid volume (mL) of the enzyme solution, 1.0 is the optical path length (cm) of the cell, ΔA555blank is the increase in absorbance at 555 nm per minute, when the reaction is initiated by addition of 10 mM acetate buffer instead of the enzyme sample solution, and df represents the degree of dilution.

Experiment [2] is described as follows: GDH activity measurement (PMS/DCIP, absorbance at 600 nm). The experiment is classed as biochemical. To be noted: purified enzymes / commercial GOD. The method, then:
Specifically, the activity of the flavin-binding GDH is measured in the following manner, according to the invention. A mixture of 1.79 mL of 100 mM phosphate buffer (pH 7.0), 0.08 mL of a 1.25 M D-glucose solution and 0.01 mL of a 20 mM DCIP solution is warmed at 37° C. for 5 minutes. Next, 0.02 mL of a 20 mM PMS solution and 0.1 mL of an enzyme sample solution are added, and reaction is initiated. The absorbance is measured at the start of the reaction and periodically thereafter, the reduction in absorbance at 600 nm per minute (ΔA600) as the enzyme reaction proceeds is determined, and the flavin-binding GDH activity is calculated by the following formula. […]
The value of 2.0 in the formula is the liquid volume (mL) of reaction reagent+enzyme reagent, 16.3 is the millimolar molecular absorption coefficient (cm^2/μmol) under the activity measuring conditions, 0.1 is the liquid volume (mL) of the enzyme solution, 1.0 is the optical path length (cm) of the cell, ΔA600blank is the reduction in absorbance at 600 nm per minute, when the reaction is initiated by addition of 10 mM acetate buffer instead of the enzyme sample solution, and df represents the degree of dilution.
Each solution was combined by the procedure described below, and the absorbance was measured to determine the GDH activity of the crude enzyme solution. […]

B1: Aspergillus niger-derived GOD: commercially available glucose oxidase derived from Aspergillus niger (GOD, product of Biozyme Laboratories) (protein, UniProt P13006 17-605, looked up)
Glucose oxidase: LPHYIRSNGIEASLLTDPKDVSGRTVDYIIAGGGLTGLTTAARLTENPNISVLVIESGSYESDRGPIIEDLNAYGDIFGSSVDHAYETVELATNNQTALIRSGNGLGGSTLVNGGTWTRPHKAQVDSWETVFGNEGWNWDNVAAYSLQAERARAPNAKQIAAGHYFNASCHGVNGTVHAGPRDTGDDYSPIVKALMSAVEDRGVPTKKDFGCGDPHGVSMFPNTLHEDQVRSDAAREWLLPNYQRPNLQVLTGQYVGKVLLSQNGTTPRAVGVEFGTHKGNTHNVYAKHEVLLAAGSAVSPTILEYSGIGMKSILEPLGIDTVVDLPVGLNLQDQTTATVRSRITSAGAGQGQAAWFATFNETFGDYSEKAHELLNTKLEQWAEEAVARGGFHNTTALLIQYENYRDWIVNHNVAYSELFLDTAGVASFDVWDLLPFTRGYVHILDKDPYLHHFAYDPQYFLNELDLLGQAAATQLARNISNSGAMQTYFAGETIPGDNLAYDADLSAWTEYIPYHFRPNYHGVGTCSMMPKEMGGVVDNAARVYGVQGLRVIDGSIPPTQMSSHVMTVFYAMALKISDAILEDYASMQ
Consider B1, for which the GOD activity in experiment [1] is reported as 9.38 U/mL. Besides, in experiment [2], the GDH activity is 3.50 U/mL.

(Values after US8445246B2, “Flavin-binding glucose dehydrogenases” (Kikkoman Corporation, priority 2009, dated 2013).)
